Reference: article PMC2831474 (Archives of biochemistry and biophysics, 2010)

Molecular target: preformed F-actin (chicken pectoral muscle skeletal actin polymerized with 0.1 M KCl) (chicken, UniProt P68139 1-377)
Assay: co-sedimentation

B1: N-acetylated striated muscle long α-tropomyosin (stTM) (natural protein)
chain: not shown
modifications: N-acetylated
  stoichiometry N: 0.25 ± 0.03 tropomyosin/actin molar ratio
